From US20250340635A1 (HEFEI TG IMMUNOPHARMA, published 2025) come the findings set out here.

To fix the notation:
B1: murine 10D10 antibody (antibody, mouse IgG2a, kappa)
heavy: QVQLQQPGAELVRPGASVRLSCKASGYTFTTYWMHWVKLRPGQGFEWIGEINPGNGGTNYNEKFKRKATLTVDKSSSTAYMQLSSLTSEDSAVYYCAIRLRFALDYWGQGTSVTVSSAKTTAPSVYPLAPVCGDTTGSSVTLGCLVKGYFPEPVTLTWNSGSLSSGVHTFPAVLQSDLYTLSSSVTVTSSTWPSQSITCNVAHPASSTKVDKKIEPRGPTIKPCPPCKCPAPNLLGGPSVFIFPPKIKDVLMISLSPIVTCVVVDVSEDDPDVQISWFVNNVEVHTAQTQTHREDYNSTLRVVSALPIQHQDWMSGKEFKCKVNNKDLPAPIERTISKPKGSVRAPQVYVLPPPEEEMTKKQVTLTCMVTDFMPEDIYVEWTNNGKTELNYKNTEPVLDSDGSYFMYSKLRVEKKNWVERNSYSCSVVHEGLHNHHTTKSFSRTPGK
light: DIQMTQTTSSLSASLGDRVTISCRASQDVRNFLNWFQQKPDGTVKLLIYFTSRLHSGVPSRFSGSGSGTDYSLTISNLEQEDIATYFCQQGNTLPPTFGGGTKLEIKRADAAPTVSIFPPSSEQLTSGGASVVCFLNNFYPKDINVKWKIDGSERQNGVLNSWTDQDSKDSTYSMSSTLTLTKDEYERHNSYTCEATHKTSTSPIVKSFNRNEC
notes: Murine monoclonal antibody from a hybridoma
B2: murine 3B9 antibody (antibody, mouse IgG2a, kappa)
heavy: EVKLVESGGGLVKPGGSLKLSCAPFGFTFSSYAMSWVRQTPEKRLEWVASISSGGITYYPDSVKGRFTISRDNVRNILNLQMSSLRSEDTAMYYCVRGFLTSYWGQGTLVTVSAAKTTAPSVYPLAPVCGDTTGSSVTLGCLVKGYFPEPVTLTWNSGSLSSGVHTFPAVLQSDLYTLSSSVTVTSSTWPSQSITCNVAHPASSTKVDKKIEPRGPTIKPCPPCKCPAPNLLGGPSVFIFPPKIKDVLMISLSPIVTCVVVDVSEDDPDVQISWFVNNVEVHTAQTQTHREDYNSTLRVVSALPIQHQDWMSGKEFKCKVNNKDLPAPIERTISKPKGSVRAPQVYVLPPPEEEMTKKQVTLTCMVTDFMPEDIYVEWTNNGKTELNYKNTEPVLDSDGSYFMYSKLRVEKKNWVERNSYSCSVVHEGLHNHHTTKSFSRTPGK
light: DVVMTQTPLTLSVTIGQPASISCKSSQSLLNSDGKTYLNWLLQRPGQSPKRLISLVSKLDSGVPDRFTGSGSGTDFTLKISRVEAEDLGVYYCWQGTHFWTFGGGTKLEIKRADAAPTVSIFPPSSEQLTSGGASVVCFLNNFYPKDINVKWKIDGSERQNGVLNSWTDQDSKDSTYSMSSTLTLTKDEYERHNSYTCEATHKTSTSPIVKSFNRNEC
notes: as for B1
B3: murine 10E10 antibody (antibody, mouse IgG2a, kappa)
heavy: QVQLQQSGDDLVKPGASVKLSCKASGYTFTSYWINWIKQRPGQGLEWIGRVVPGSGRTYYNEIFKGKAILTVDSYSNTAYIQLRSVSSEDSAVYFCARVGGYWDYWGQGITLTVSSAKTTAPSVYPLAPVCGDTTGSSVTLGCLVKGYFPEPVTLTWNSGSLSSGVHTFPAVLQSDLYTLSSSVTVTSSTWPSQSITCNVAHPASSTKVDKKIEPRGPTIKPCPPCKCPAPNLLGGPSVFIFPPKIKDVLMISLSPIVTCVVVDVSEDDPDVQISWFVNNVEVHTAQTQTHREDYNSTLRVVSALPIQHQDWMSGKEFKCKVNNKDLPAPIERTISKPKGSVRAPQVYVLPPPEEEMTKKQVTLTCMVTDFMPEDIYVEWTNNGKTELNYKNTEPVLDSDGSYFMYSKLRVEKKNWVERNSYSCSVVHEGLHNHHTTKSFSRTPGK
light: QIVLSQSPAILSASPGEKVTMACRASSSVNYIHWYQQRPGSSPKPWIYATSSLASGVPARFSGSGSGTSYSLTISRVEAEDAATYYCQQWSSNPYTFGGGTKLEMKRADAAPTVSIFPPSSEQLTSGGASVVCFLNNFYPKDINVKWKIDGSERQNGVLNSWTDQDSKDSTYSMSSTLTLTKDEYERHNSYTCEATHKTSTSPIVKSFNRNEC
notes: as for B1
B4: human-murine chimeric 3B9 antibody (antibody, human IgG1, kappa, L234A L235A)
heavy: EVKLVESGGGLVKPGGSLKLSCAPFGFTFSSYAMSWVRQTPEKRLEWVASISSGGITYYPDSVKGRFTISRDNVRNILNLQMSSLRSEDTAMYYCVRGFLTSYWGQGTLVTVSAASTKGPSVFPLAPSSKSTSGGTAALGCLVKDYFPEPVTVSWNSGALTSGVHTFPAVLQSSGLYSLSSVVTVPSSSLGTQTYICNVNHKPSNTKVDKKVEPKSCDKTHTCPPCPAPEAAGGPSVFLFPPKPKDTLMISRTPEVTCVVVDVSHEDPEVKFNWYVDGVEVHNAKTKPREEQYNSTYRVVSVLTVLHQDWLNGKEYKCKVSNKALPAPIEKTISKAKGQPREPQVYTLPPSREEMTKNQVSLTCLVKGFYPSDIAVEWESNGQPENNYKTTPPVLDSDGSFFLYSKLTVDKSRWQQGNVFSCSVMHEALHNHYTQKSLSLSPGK
light: DVVMTQTPLTLSVTIGQPASISCKSSQSLLNSDGKTYLNWLLQRPGQSPKRLISLVSKLDSGVPDRFTGSGSGTDFTLKISRVEAEDLGVYYCWQGTHFWTFGGGTKLEIKRTVAAPSVFIFPPSDEQLKSGTASVVCLLNNFYPREAKVQWKVDNALQSGNSQESVTEQDSKDSTYSLSSTLTLSKADYEKHKVYACEVTHQGLSSPVTKSFNRGEC
notes: Human IgG1 LALA constant region, made in ExpiCHO-S cells; also called 3B9-hIgG1LALA
B5: humanized 10D10 antibody (antibody, human IgG1, kappa, L234A L235A, V domains shown)
VH: QVQLVQSGAEVKKPGASVKVSCKASGYTFTTYWMHWVKQAPGQGLEWIGEINPGNGGTNYNEKFKRRATMTVDKSISTAYMELSRLRSDDTAVYYCAIRLRFALDYWGQGTLVTVSS
VL: DIQMTQSPSSLSASVGDRVTITCRASQDVRNFLNWFQQKPGKAPKLLIYFTSRLHSGVPSRFSGSGSGTDYTFTISSLQPEDIATYFCQQGNTLPPTFGGGTKLEIKR
notes: human IgG1 LALA; also called h10D10-hIgG1LALA; humanized NKp46 antibody
B6: human-murine chimeric 10D10 antibody (antibody, human IgG1, kappa, L234A L235A)
heavy: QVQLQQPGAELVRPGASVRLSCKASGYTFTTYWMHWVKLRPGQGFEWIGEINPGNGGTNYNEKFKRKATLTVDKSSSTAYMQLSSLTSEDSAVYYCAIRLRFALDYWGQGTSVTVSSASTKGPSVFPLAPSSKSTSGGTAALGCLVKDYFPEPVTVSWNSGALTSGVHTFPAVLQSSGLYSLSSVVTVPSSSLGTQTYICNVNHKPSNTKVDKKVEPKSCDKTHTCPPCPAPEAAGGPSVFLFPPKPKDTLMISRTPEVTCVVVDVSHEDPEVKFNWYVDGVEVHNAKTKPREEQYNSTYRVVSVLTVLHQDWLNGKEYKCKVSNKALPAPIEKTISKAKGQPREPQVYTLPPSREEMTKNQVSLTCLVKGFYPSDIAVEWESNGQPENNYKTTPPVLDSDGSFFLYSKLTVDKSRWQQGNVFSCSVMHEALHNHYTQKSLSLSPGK
light: DIQMTQTTSSLSASLGDRVTISCRASQDVRNFLNWFQQKPDGTVKLLIYFTSRLHSGVPSRFSGSGSGTDYSLTISNLEQEDIATYFCQQGNTLPPTFGGGTKLEIKRTVAAPSVFIFPPSDEQLKSGTASVVCLLNNFYPREAKVQWKVDNALQSGNSQESVTEQDSKDSTYSLSSTLTLSKADYEKHKVYACEVTHQGLSSPVTKSFNRGEC
notes: Human IgG1 LALA constant region, made in ExpiCHO-S cells; also called 10D10-hIgG1LALA
B7: human-murine chimeric 10E10 antibody (antibody, human IgG1, kappa, L234A L235A)
heavy: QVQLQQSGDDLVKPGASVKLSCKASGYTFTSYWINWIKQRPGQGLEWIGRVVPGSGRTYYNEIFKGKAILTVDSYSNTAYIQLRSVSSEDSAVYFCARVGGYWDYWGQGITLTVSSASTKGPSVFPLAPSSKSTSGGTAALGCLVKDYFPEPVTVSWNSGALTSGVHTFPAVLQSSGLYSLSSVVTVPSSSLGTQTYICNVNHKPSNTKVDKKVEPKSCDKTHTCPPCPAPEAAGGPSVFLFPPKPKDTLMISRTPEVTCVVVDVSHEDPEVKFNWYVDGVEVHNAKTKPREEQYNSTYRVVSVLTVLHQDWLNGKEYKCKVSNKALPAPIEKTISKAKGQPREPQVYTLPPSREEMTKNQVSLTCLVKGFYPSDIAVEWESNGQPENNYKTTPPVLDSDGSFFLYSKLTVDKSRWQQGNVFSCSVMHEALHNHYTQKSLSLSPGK
light: QIVLSQSPAILSASPGEKVTMACRASSSVNYIHWYQQRPGSSPKPWIYATSSLASGVPARFSGSGSGTSYSLTISRVEAEDAATYYCQQWSSNPYTFGGGTKLEMKRTVAAPSVFIFPPSDEQLKSGTASVVCLLNNFYPREAKVQWKVDNALQSGNSQESVTEQDSKDSTYSLSSTLTLSKADYEKHKVYACEVTHQGLSSPVTKSFNRGEC
notes: Human IgG1 LALA constant region, made in ExpiCHO-S cells; also called 10E10-hIgG1LALA

T3 sequence (O76036 22-304 Q82K limits assumed): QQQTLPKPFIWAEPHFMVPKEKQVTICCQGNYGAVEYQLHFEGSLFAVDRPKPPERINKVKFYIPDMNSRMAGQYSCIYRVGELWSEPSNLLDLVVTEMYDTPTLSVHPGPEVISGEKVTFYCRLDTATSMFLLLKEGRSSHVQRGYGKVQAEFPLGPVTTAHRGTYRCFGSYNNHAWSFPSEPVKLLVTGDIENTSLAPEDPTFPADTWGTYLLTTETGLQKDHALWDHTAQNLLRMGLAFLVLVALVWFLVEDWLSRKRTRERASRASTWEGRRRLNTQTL

The target in one assay is T1, cynomolgus monkey-His fusion protein (cynomolgus monkey, UniProt Q95JB9 22-257).
T1 construct: extracellular domain; also called cynomolgus monkey NKp46; monkey NKp46; not shown: His tag
T1 sequence (Q95JB9 22-257): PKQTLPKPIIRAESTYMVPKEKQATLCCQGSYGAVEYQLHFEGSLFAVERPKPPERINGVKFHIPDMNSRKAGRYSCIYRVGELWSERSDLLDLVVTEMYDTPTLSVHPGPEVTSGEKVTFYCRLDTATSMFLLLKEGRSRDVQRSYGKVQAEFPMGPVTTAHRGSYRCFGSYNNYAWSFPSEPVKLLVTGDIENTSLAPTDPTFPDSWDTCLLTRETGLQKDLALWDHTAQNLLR
In words: ELISA, NKp46-His coated, anti-mouse HRP. The text has this:
(§1) The binding characteristics of the three NKp46 antibodies (10D10 antibody, 10E10 antibody, and 3B9 antibody) obtained in Example 1 were detected using the ELISA assay. The NKp46 extracellular region His tag fusion protein (NKp46-His) was coated into a 96-well plate. The signal intensity after antibody addition was used to determine the binding characteristics of the antibody to NKp46. The specific steps were as follows:
(§2) The human NKp46-His fusion protein (purchased from Acro) and cynomolgus monkey-His fusion protein (purchased from Acro) were diluted to 1 μg/mL with PBS buffer, added to a 96-well plate at 100 μL/well, and left overnight at 4° C. The PBS buffer solution was removed from the 96-well plate. The plate was washed 6 times with PBST (pH 7.2, PBS containing 0.1% Tween 20) buffer solution. PBS/10% BSA was added at 200 μL/well and incubated at 37° C. for 2 hours for blocking. The blocking solution was removed. The plate was washed 6 times with PBST. NKp46 antibody to be tested diluted to an appropriate concentration with PBST/0.05% BSA was added at 100 μL/well, and incubated for 1 h at 37° C. The reaction system was removed. The plate was washed 6 times with PBST. HRP (horseradish peroxidase)-labeled anti-mouse secondary antibody diluted with PBST/0.05% BSA was added at 100 μL/well and incubated for 1 h at 37° C. The plate was washed 6 times with PBST, and TMB (tetramethylbenzidine) was added at 80 μL/well. After 3 min of incubation at room temperature, 4M sulfuric acid was added at 80 μL/well to terminate the reaction. The absorbance at […] was read with a microplate reader.
(In general: ELISA stands for enzyme-linked immunosorbent assay.)
Consider B1, for which the binding result is given as “binds”.
Same read-out and setting: the result for B2 reads “binds”; that for B3, “binds”.

The next assay deals with T2, human NKp46-His fusion protein (human, UniProt O76036 22-258).
T2 construct: Bought from Acro; also called NKp46 extracellular region His tag fusion protein; not shown: His tag
T2 sequence (O76036 22-258 Q82K): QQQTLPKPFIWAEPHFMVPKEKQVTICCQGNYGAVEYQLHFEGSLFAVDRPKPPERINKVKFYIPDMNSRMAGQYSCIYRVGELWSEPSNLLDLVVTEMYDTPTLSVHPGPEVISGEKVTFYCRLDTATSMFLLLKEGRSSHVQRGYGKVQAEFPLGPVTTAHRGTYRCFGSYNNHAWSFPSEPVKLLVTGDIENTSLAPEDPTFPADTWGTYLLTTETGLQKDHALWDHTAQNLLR
Description: ELISA, NKp46-His coated, anti-mouse HRP.
Description: as §1, §2
B1: the binding result is “binds”.
Still for that read-out and setting: the result for B2 reads “binds”.
Still for that read-out and setting: then B3, with “binds”.

The next assay has as its target T1, cynomolgus monkey-His fusion protein. Description: ELISA, NKp46-His coated, anti-human HRP.
On to B4, for which the binding result is listed as “binds”.
Still for that read-out and setting: the result for B5 reads “binds”.
The same measure, in the same setting: then B6, with “binds”; and B7, with “binds”.

The target of a further assay is T2, human NKp46-His fusion protein. Description: ELISA, NKp46-His coated, anti-human HRP.
In the case of B4, the binding result is on record as “binds”.
Same read-out and setting: then B5, with “binds”; and B6, with “binds”.
As for B7, the binding result is given as “binds”.

A further assay concerns the target T3, NKp46 on human peripheral blood mononuclear cells (human, UniProt O76036 22-304).
T3 construct: also called human PBMCs
In words: flow cytometry on human PBMCs. The protocol:
The binding characteristics of the three NKp46 antibodies (10D10 antibody, 10E10 antibody, and 3B9 antibody) obtained in Example 1 were detected using the flow cytometry assay. Murine NKp46 antibodies were added to human peripheral blood mononuclear cells. The signal intensity after antibody addition was used to determine the binding characteristics of the antibody to PBMCs. The specific steps were as follows:
Human peripheral blood mononuclear cells (PBMCs) were diluted to 2×10⁶ cells/mL with PBS and added to a 1.5 mL EP tube at 100 μL/tube. Goat serum was added at […] and was blocked at 4° C. for 30 min. NKp46 antibodies at different concentrations gradients were added and incubated at 4° C. for 30 min. The EP tube was added with 1 mL of PBS, and centrifuged at 3500 rpm at 4° C. for 5 min. The supernatant was discarded and the pellet was washed once more with PBS. After centrifugation, the supernatant was discarded, and the cells were resuspended with 100 μL/tube of PBS, and 0.1 μL/tube of Alexa-647-labeled goat anti-mouse secondary antibody (Biolegend) and 0.5 μL/tube of FITC-labeled CD3 antibody were added, and incubated at 4° C. in the dark for 30 min. The pellet was washed twice with PBS and the supernatant was discarded after centrifugation. The cells were resuspended with 200 μL/tube of PBS and detected by flow cytometry.
In general terms: A flow cytometer gives signals particle by particle.
Take B1: the binding result is listed as “binds”.
Same read-out and setting: the result for B2 reads “binds”.
Turning to B3, the binding result is recorded as “binds”.

In the next assay the target is T3, NKp46 on human peripheral blood …. In words: flow cytometry on PBMCs. The protocol: (§3) The binding characteristics of the two human-murine chimeric NKp46 antibodies (i.e., human-murine chimeric 10D10 antibody and human-murine chimeric 3B9 antibody) prepared in Example 4 were detected using the flow cytometry assay. Human-murine chimeric NKp46 antibodies were added to human and cynomolgus monkey peripheral blood mononuclear cells. The signal intensity after antibody addition was used to determine the binding characteristics of the antibody to PBMCs. The specific steps were as follows:
(§4) Human and cynomolgus monkey peripheral blood mononuclear cells (PBMCs) were diluted to 2×10⁶ cells/mL with PBS and added to 1.5 mL EP tube at 100 μL/tube. Goat serum was added at 10 μL/tube and was blocked at 4° C. for 30 min. NKp46 antibodies at different concentrations gradients and the positive control antibody (hIgG1 LALA) were added and incubated at 4° C. for 30 min. The EP tube was added with 1 mL of PBS, and centrifuged at 3500 rpm at 4° C. for 5 min. The supernatant was discarded and the pellet was washed once more with PBS. After centrifugation, the supernatant was discarded, and the cells were resuspended with 100 IL/tube of PBS, and 0.1 μL/tube of Alexa-647 labeled rat anti-human IgG-Fc secondary antibody (Biolegend) and 0.5 μL/tube BV510-labeled CD16 antibody were added, and incubated at 4° C. in the dark for 30 min. The pellet was washed twice with PBS and the supernatant was discarded after centrifugation. The cells were resuspended with 200 μL/tube of PBS and detected by flow cytometry.
For B4, the binding result was “binds”.
Turning to B6, the binding result is reported as “binds”.

The target of the next assay is T4, NKp46 on cynomolgus monkey peripheral blood mononuclear cells (cynomolgus monkey, UniProt Q95JB9 22-306).
T4 construct: whole, on cells; also called cynomolgus monkey PBMCs
T4 sequence (Q95JB9 22-306): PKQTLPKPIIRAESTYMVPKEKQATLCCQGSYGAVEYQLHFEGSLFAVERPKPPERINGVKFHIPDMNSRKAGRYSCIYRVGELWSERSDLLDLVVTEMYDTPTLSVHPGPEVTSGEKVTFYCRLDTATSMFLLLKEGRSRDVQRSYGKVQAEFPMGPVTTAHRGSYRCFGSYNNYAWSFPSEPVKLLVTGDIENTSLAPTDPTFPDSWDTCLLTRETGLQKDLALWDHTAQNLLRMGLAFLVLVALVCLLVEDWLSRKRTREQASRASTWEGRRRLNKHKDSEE
Description: flow cytometry on PBMCs. The protocol:
as §3, §4
As to B4, the binding result is “binds”.
On the same count and under the same terms, the result for B6 reads “binds”.
